Read-outs that look alike come from different tables or passages of the source.
How the values were obtained:
PhoB (Escherichia coli) [1] = biological target: PhoB (Escherichia coli) (UniProt P0AFJ5); conditions: cited from earlier work
PhoB (Escherichia coli) [2] = biological target: PhoB (Escherichia coli) (UniProt P0AFJ5); conditions: cited from earlier work; remark: listed apart in the source
AUC [3] = biological target: the molecule itself; assay: AUC
AUC [4] = biological target: the molecule itself; assay: AUC; remark: listed apart in the source
OmpR = biological target: T1, OmpR (Escherichia coli, UniProt P0AA16 1-239); assay: ITC
T1 sequence: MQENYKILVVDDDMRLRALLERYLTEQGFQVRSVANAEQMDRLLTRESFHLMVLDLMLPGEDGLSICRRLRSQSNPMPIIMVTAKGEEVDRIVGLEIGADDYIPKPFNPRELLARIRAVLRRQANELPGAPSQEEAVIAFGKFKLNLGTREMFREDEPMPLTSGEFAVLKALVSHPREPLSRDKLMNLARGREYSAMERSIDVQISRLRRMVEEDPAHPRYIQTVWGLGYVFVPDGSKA

Chain of PhoB (Escherichia coli) (P0AFJ5 whole entry): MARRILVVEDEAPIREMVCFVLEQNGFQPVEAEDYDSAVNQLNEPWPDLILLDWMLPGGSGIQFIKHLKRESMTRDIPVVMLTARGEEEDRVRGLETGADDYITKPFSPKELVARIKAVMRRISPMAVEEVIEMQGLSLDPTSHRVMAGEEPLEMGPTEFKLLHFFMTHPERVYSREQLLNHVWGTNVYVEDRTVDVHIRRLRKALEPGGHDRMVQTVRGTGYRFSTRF

Molecule: PhoB (from UniProt P0AFJ5)
- Kd (PhoB (Escherichia coli) [1]): 380 µM
- Kd (PhoB (Escherichia coli) [2]): 5.1 µM

B1: OmpR (unphosphorylated, untreated) (natural protein, Escherichia coli, UniProt P0AA16 1-239, looked up)
chain: T1 sequence
- Kd (AUC [3]): 1100 µM
- stoichiometry N (AUC [3]): 2

B2: BeF3−-treated OmpR (natural protein, Escherichia coli, UniProt P0AA16 1-239, looked up)
chain: T1 sequence
modifications: BeF3− (noncovalent small molecule phosphoryl analog); residue not given
- Kd (AUC [4]): 7 µM
- stoichiometry N (AUC [4]): 2

B3: F1 (dsDNA)
DNA 1: GCTTTACTTTTGGTTACATATTTCG
DNA 2: CGAAATATGTAACCAAAAGTAAAGC
- Kd (OmpR): 2 µM
